Test results taken from US20200079833A1 (AstraZeneca / MedImmune, published 2020).
Starred links: 1 amine or outer side, 2 acyl side, 3 side chain; linkers in the order of their positions; H or OH if unused. Non-standard residues stand in square brackets, D forms with d. Groups on a side chain read outwards from the residue. Primed or numbered codes have the meaning given here. No end group written: not given here. *: point of attachment. γGlu = O=C(O)[C@H](CCC(=O)[*:2])N[*:1]; Stearoyl = CCCCCCCCCCCCCCCCCC(=O)*; αMeF = C[C@](N)(Cc1ccccc1)C(=O)O; αMeK = C[C@](N)(CCCCN)C(=O)O; αMeS = C[C@](N)(CO)C(=O)O; PEG2′ = not defined here; Aib = CC(C)(N)C(=O)O

B1: SEQ ID NO 50 (peptide)
peptide: H[Aib]EGS[αMeF]TSDV[αMeS]S[αMeF]LEGEAAK([PEG2′-PEG2′-γGlu-Stearoyl])E[αMeF]IA[αMeF]VVKGG-NH2
B2: SEQ ID NO 51 (peptide)
peptide: H[Aib]EGSFTSDV[αMeS]S[αMeF]LEGEAAK([PEG2′-PEG2′-PEG2′-Stearoyl])E[αMeF]IA[αMeF]VV[αMeK]GG-NH2
B3: SEQ ID NO 52 (peptide)
peptide: H[Aib]EGS[αMeF]TSDVSS[αMeF]LEGEAAK([PEG2′-PEG2′-PEG2′-Stearoyl])E[αMeF]IA[αMeF]VV[αMeK]GG-NH2
B4: SEQ ID NO 53 (peptide)
peptide: H[Aib]EGS[αMeF]TSDV[αMeS]SYLEGEAAK([PEG2′-PEG2′-PEG2′-Stearoyl])E[αMeF]IA[αMeF]VV[αMeK]GG-NH2
B5: SEQ ID NO 54 (peptide)
peptide: H[Aib]EGS[αMeF]TSDV[αMeS]S[αMeF]LEGEAAK([PEG2′-PEG2′-PEG2′-Stearoyl])EFIA[αMeF]VV[αMeK]GG-NH2
B6: SEQ ID NO 55 (peptide)
peptide: H[Aib]EGS[αMeF]TSDV[αMeS]S[αMeF]LEGEAAK([PEG2′-PEG2′-PEG2′-Stearoyl])E[αMeF]IAWVV[αMeK]GG-NH2
B7: SEQ ID NO 56 (peptide)
peptide: H[Aib]EGS[αMeF]TSDV[αMeS]S[αMeF]LEGEAAK([PEG2′-PEG2′-PEG2′-Stearoyl])E[αMeF]IA[αMeF]VVKGG-NH2
B8: SEQ ID NO 60 (peptide)
peptide: H[Aib]EGS[αMeF]TSDVSK([PEG2′-PEG2′-γGlu-Stearoyl])YLEGEAA[αMeK]E[αMeF]IA[αMeF]VVEGG-NH2
B9: SEQ ID NO 61 (peptide)
peptide: H[Aib]EGS[αMeF]TSDVSK([PEG2′-PEG2′-PEG2′-Stearoyl])YLEGEAAKE[αMeF]IA[αMeF]VVEGG-NH2
B10: SEQ ID NO 62 (peptide)
peptide: H[Aib]EGS[αMeF]TSDVSK([PEG2′-PEG2′-PEG2′-Stearoyl])YLEGEAAEE[αMeF]IA[αMeF]VVEGG-NH2
B11: SEQ ID NO 63 (peptide)
peptide: H[Aib]EGS[αMeF]TSDVSK([PEG2′-PEG2′-PEG2′-Stearoyl])YLEGEAA[Aib]E[αMeF]IA[αMeF]VVEGG-NH2
B12: SEQ ID NO 64 (peptide)
peptide: H[Aib]EGS[αMeF]TSDVSK([PEG2′-PEG2′-PEG2′-Stearoyl])YLEGEAA[αMeK]E[αMeF]IA[αMeF]VVEGG-NH2

What follows are binders tested against T1, GLP-1R (INS1e assay) (UniProt P32301 22-463, limits assumed) (assay: cell-based or functional assay).
T1 sequence (looked up): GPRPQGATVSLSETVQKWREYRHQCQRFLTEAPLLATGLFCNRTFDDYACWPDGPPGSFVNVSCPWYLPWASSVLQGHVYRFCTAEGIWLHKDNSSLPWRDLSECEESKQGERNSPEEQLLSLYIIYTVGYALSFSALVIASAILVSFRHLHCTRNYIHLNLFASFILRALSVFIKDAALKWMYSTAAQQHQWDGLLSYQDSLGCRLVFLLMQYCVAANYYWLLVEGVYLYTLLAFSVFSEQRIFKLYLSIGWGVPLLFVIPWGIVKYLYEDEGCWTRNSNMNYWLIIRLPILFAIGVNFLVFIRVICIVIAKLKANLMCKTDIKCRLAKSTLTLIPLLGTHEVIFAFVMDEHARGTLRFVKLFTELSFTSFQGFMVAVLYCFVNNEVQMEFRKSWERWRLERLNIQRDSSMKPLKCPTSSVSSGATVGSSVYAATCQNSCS

Point of comparison: B2, “INS1e assay EC50 GLP-1 R n1” value 0.0247 nM. Against it:
- B1 — 890-fold higher, 22.1 nM
- B3 — within 1.5-fold, 0.0214 nM
- B4 — 4-fold lower, 0.00625 nM
- B5 — 9.3-fold lower, 0.00267 nM
- B6 — 2-fold lower, 0.0125 nM
- B7 — within 1.5-fold, 0.0352 nM
- B8 — 580-fold higher, 14.3 nM
- B9 — 4.4-fold lower, 0.00557 nM
- B10 — 8.5-fold higher, 0.209 nM
- B11 — within 1.5-fold, 0.0231 nM
- B12 — 3.6-fold lower, 0.0068 nM

Point of comparison: B5, “INS1e assay EC50 GLP-1 R n2” value 0.00837 nM. Against it:
- B1 — 5100-fold higher, 42.6 nM
- B2 — 2.5-fold higher, 0.0207 nM
- B3 — 2.3-fold higher, 0.0193 nM
- B4 — within 1.5-fold, 0.00815 nM
- B6 — within 1.5-fold, 0.0101 nM
- B7 — 9.2-fold higher, 0.077 nM
- B8 — 1400-fold higher, 12.1 nM
- B9 — 1.6-fold higher, 0.0135 nM
- B10 — 10-fold higher, 0.0837 nM
- B11 — 4.7-fold higher, 0.0392 nM
- B12 — within 1.5-fold, 0.0121 nM

Point of comparison: B7, “INS1e assay EC50 Mean pM GLP-1R” value 56 pM. Against it:
- B1 — higher, 32400 pM
- B2 — lower, 23 pM
- B3 — lower, 20 pM
- B4 — lower, 7 pM
- B5 — lower, 6 pM
- B6 — lower, 11 pM
- B8 — higher, 13200 pM
- B9 — lower, 10 pM
- B10 — higher, 146 pM
- B11 — lower, 31 pM
- B12 — lower, 9 pM
